Patent US20200407435A1 (Boehringer Ingelheim, published 2020)
Several values for one entry are separate records, joined by “and”; a condition that tells them apart may be missing. Equal values may be shown once.

T1: rhAngiopoietin-2 (R&D systems cat 623-AN/CF) (human, UniProt O15123 19-496, limits assumed)
T1 sequence (looked up): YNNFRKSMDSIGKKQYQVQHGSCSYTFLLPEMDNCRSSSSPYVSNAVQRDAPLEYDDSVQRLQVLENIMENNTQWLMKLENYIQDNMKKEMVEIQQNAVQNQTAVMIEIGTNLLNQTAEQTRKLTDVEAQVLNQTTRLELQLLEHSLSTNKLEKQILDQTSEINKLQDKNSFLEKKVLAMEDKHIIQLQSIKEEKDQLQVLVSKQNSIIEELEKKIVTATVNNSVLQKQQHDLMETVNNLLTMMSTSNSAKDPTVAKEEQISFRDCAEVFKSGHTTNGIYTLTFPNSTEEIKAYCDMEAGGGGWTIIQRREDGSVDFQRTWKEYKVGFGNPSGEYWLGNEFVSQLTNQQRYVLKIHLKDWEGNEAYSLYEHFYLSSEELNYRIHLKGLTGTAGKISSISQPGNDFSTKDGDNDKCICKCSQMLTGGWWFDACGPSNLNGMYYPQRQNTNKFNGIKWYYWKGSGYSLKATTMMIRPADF

T2: human ANGPT2 (SPR analyte) (human, UniProt O15123 275-496, limits assumed)
T2 construct: domain: FLD domain; also called HuANGPT2; human ANGPT2 FLD domain
T2 sequence (looked up): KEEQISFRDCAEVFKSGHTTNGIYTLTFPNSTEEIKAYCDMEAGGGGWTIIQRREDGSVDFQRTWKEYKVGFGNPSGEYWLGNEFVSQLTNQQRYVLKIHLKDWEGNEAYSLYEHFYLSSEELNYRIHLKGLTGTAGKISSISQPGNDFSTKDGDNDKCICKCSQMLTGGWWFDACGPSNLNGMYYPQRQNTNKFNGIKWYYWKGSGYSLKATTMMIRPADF

T3: cynomolgus (cyno) ANGPT2 (cynomolgus, UniProt A0A2K5VNX6 275-496)
T3 construct: domain: FLD domain; also called cyno ANGPT2 FLD domain
T3 sequence: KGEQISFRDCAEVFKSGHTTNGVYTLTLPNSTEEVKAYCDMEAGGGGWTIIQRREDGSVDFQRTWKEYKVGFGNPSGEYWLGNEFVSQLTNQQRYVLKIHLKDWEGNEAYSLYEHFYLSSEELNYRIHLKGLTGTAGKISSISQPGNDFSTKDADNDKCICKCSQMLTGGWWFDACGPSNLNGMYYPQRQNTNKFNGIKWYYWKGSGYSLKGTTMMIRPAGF

T4: Human ANGPT2 Dimer (CC-FLD) (human, UniProt O15123 74-496, limits assumed)
T4 construct: domain: CC-FLD; also called ANGPT2 protein with His-tag; not shown: His-tag
T4 sequence (looked up): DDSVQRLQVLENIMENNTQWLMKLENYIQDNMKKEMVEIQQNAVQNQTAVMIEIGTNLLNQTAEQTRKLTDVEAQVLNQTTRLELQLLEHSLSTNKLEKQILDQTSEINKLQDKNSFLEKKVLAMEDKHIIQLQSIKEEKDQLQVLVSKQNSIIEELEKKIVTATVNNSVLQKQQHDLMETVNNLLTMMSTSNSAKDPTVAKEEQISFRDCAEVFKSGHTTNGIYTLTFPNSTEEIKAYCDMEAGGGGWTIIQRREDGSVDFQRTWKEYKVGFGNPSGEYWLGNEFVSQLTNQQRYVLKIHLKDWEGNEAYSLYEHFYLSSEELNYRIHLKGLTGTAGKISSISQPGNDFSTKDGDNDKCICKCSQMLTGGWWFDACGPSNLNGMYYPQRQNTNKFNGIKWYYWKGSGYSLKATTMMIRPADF

T5: rat ANGPT2 (rat, UniProt O35462 275-496, limits assumed)
T5 construct: domain: FLD domain; also called rat ANGPT2 FLD domain
T5 sequence (looked up): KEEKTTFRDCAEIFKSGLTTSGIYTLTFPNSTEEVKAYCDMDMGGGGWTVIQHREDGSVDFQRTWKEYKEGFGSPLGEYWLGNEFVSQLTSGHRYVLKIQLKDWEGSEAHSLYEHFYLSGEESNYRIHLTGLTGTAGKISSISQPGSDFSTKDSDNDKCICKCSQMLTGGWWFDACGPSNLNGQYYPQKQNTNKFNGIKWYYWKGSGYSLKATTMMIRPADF


Columns and labels:
[1] = molecular target: T1, rhAngiopoietin-2 (R&D systems cat …); assay: cell-based or functional assay
[2] = molecular target: T2, human ANGPT2 (SPR analyte); assay: SPR (ProteOn XPR36), antibody captured on Protein A/G, ANGPT2 as analyte, 1:1 Langmuir fit
Experimental: (§1) The binding affinity to the various ANGPT2 analytes is determined by surface plasmon resonance (SPR) using a ProteOn XPR36 (Bio-Rad). Unless otherwise stated, all reagents are obtained from Bio-Rad. The running buffer for all assays and dilutions (except where stated) is phosphate buffered saline (PBS)/ethylenediamine tetraacetic acid (EDTA) with 0.01% Tween20 (PBS-T-EDTA). PBS-T-EDTA is prepared by adding 100 μl of 100% Tween20 to 2 L of PBS-T-EDTA with an initial concentration of 0.005% Tween20 to make a final Tween20 concentration of 0.01%. The general linearized model (GLM) sensorchip is normalized, pre-conditioned, and activated with an equal mixture of 1-ethyl-3-[3-dimethylaminopropyl]carbodiimide (EDC)/N-hydroxysulfosuccinimide (s-NHS) in the horizontal direction for 300 sec at a flow rate of 30 μl/min. Immobilization is then is done with Recombinant Protein A/G (Thermo Scientific) (60 μg/ml in 10 mM acetate pH 4.5) in the horizontal direction for 300 sec at a flowrate of 30 μl/min resulting in about 4370-4875 response units (RUs) of Protein A/G on the surface. The sensorchip is then deactivated with 1M ethanolamine HCl in the horizontal direction for 300 sec at a flowrate of 30 μl/min. The sensorchip is stabilized with 18 sec of 0.85% phosphoric acid at a flowrate of 100 μl/min 3 times horizontally and 3 times vertically.
(§2) Each ANGPT2 antibody is captured on the Protein A/G surface vertically for 300 sec at a flowrate of 30 μl/min resulting in a capture level of about 2500 RU. The baseline is stabilized by injecting PBS-T-EDTA for 60 sec at a flowrate of 100 μl/min horizontally with dissociation of 120 sec. The analyte (e.g., HuANGPT2) is injected horizontally over the captured antibody for 300 sec at a flowrate of 30 μl/min and a dissociation for 1800 sec. […] The surface is regenerated by injecting 0.85% phosphoric acid for 18 sec at a flowrate of 100 μl/min one time horizontally and one time vertically. PBS-T-EDTA is injected for 60 sec at a flowrate of 100 μl/min one time vertically and one time horizontally.
(§3) The interspot (interactions with sensor surface) and blank (PBS-T-EDTA with 0.01% Tween20 or 0 nM of analyte (here HuANGPT2)) are subtracted from the raw data.

cynomolgus (cyno) ANGPT2 = molecular target: T3, cynomolgus (cyno) ANGPT2; assay: as above
Experimental: as §1, §2, §3

[3] = molecular target: T4, Human ANGPT2 Dimer (CC-FLD); assay: flow cytometry blocking assay: antibody titrated against His-tagged human ANGPT2 dimer (CC-FLD) binding to HEK293 human Tie2 cells
Experimental: Human ANGPT2 Dimer (CC-FLD) is pre-incubated with the testing antibodies. The ANGPT2/Antibody mixture is then incubated with HEK293 human Tie2 cells at 4° C. After washing, the cells are stained with anti-His-AF647 (from GenScript) for detection of the His-tag on the ANGPT2 protein. The binding of the secondarily labelled ANGPT2 to human Tie2 cells is detected by FLOW cytometry. The average of the duplicate values for each concentration point is used to derive the curve fit graphs. Antibodies that prevent ANGPT2 from binding to the Tie2 cells are considered blocking antibodies. The results are shown in FIGS. 3A-3G and the EC50 values are shown in Table 5 based on the average of duplicate values.

rat ANGPT2 = molecular target: T5, rat ANGPT2; assay: SPR (ProteOn XPR36), antibody captured on Protein A/G, rat ANGPT2 as analyte
Experimental: as §1
as §2, with “horizontally. […]” for “horizontally.”

Row | Binder | Tie2 phosphorylation functional assay, EC50 [1] | Kd [2] | koff [2] | kon [2] | Kd (cynomolgus (cyno) ANGPT2) | koff (cynomolgus (cyno) ANGPT2) | kon (cynomolgus (cyno) ANGPT2) | EC50 [3] | Kd (rat ANGPT2)
1 | MEDI3617 analog (Medimmune) (antibody, human IgG1, kappa, V domains shown, Based on the description in U.S. Pat. No. 8,507,656; also called MED3617 analog; analog of MED3617) VH: QVQLVESGGGVVQPGRSLRLSCAASGFTFTNYGMHWVRQAPGKGLEWVAVISHDGNNKYYVDSVKGRFTISRDNSKNTLYLQMNSLRAEDTAVYYCAREGIDFWSGLNWFDPWGQGTLVTVSS VL: EIVLTQSPGTLSLSPGERATLSCRASQSITGSYLAWYQQKPGQAPRLLITGASSWATGIPDRFSGSGSGTDFTLTISRLEPEDFAVYYCQQYSSSPITFGQGTRLEIKR | 2.7 nM | 27 nM | 0.0166 s⁻¹ | 614000 M⁻¹ s⁻¹ | – | – | – | – | –
2 | ANGPT2-opt-31 (humanized) (antibody, human IgG1, kappa, V domains shown, also called Ang2-opt-31) VH: QVQLVQSGAEVKKPGSSVKVSCKASGYIFIDYFINWVRQAPGQGLEWMGKIGPGSGSSSSNEKFKGRVTITADKSTSTAYMELSSLRSEDTAVYYCAREAFDYDGDYYGMAYWGQGTLVTVSS VL: EIVMTQSPATLSVSPGERATLSCKSSQSLLSSGNQKSFLAWYQQKPGQAPRLLIYGASTRESGIPARFSGSGSGTEFTLTISSLQSEDFAVYYCQNDHSYPITFGQGTKLEIKR | 3.8 nM and 4.4 nM | 0.091 nM | 1.14e-05 s⁻¹ | 125000 M⁻¹ s⁻¹ | 0.145 nM | 1.96e-05 s⁻¹ | 135000 M⁻¹ s⁻¹ | 13 nM | –
3 | ANGPT2-opt-2 (humanized) (antibody, human IgG1, kappa, V domains shown, also called Ang2-opt-2; ANGP12-opt-2) VH: QVQLVQSGAEVKKPGSSVKVSCKASGYIFIEYFINWVRQAPGQGLEWMGKIGPGSGSSSSNEKFKGRVTITADKSTSTAYMELSSLRSEDTAVYYCAREAFDYEGDYYGMAYWGQGTLVTVSS VL: EIVMTQSPATLSVSPGERATLSCKSSQSLLASGNQKNFLAWYQQKPGQAPRLLIYGASTRESGIPARFSGSGSGTEFTLTISSLQSEDFAVYYCQNDHSYPITFGQGTKLEIKR | 1.8 nM and 1.9 nM | 0.649 nM | 8.11e-05 s⁻¹ | 125000 M⁻¹ s⁻¹ | 0.626 nM | 8.45e-05 s⁻¹ | 135000 M⁻¹ s⁻¹ | 14.8 nM | ≥ 118 nM
4 | ANGPT2-opt-19 (humanized) (antibody, human IgG1, kappa, V domains shown, also called Ang2-opt-19) VH: QVQLVQSGAEVKKPGSSVKVSCKASGYIFIDYFINWVRQAPGQGLEWMGKIGPGSGSSSSNEKFKGRVTITADKSTSTAYMELSSLRSEDTAVYYCAREAFDYDGDYYGMAYWGQGTLVTVSS VL: EIVMTQSPATLSVSPGERATLSCRASQSVLSSGNQKSFLAWYQQKPGQAPRLLIYGASTRETGIPARFSGSGSGTEFTLTISSLQSEDFAVYYCQQDHSYPITFGQGTKLEIKR | 5 nM and 4.6 nM | 0.712 nM | 5.83e-05 s⁻¹ | 81800 M⁻¹ s⁻¹ | 0.844 nM | 7.4e-05 s⁻¹ | 87700 M⁻¹ s⁻¹ | 15.1 nM | ≥ 118 nM
5 | ANGPT2-opt-1 (humanized) (antibody, human IgG1, kappa, V domains shown, also called Ang2-opt-1) VH: QVQLVQSGAEVKKPGSSVKVSCKASGYIFIDYFINWVRQAPGQGLEWMGKIGPGSGSSSSNEKFKGRVTITADKSTSTAYMELSSLRSEDTAVYYCAREAFDYEGDYYGMAYWGQGTLVTVSS VL: EIVMTQSPATLSVSPGERATLSCKSSQSLLASGNQKNFLAWYQQKPGQAPRLLIYGASTRESGIPARFSGSGSGTEFTLTISSLQSEDFAVYYCQNDHSYPITFGQGTKLEIKR | 3 nM and 3.2 nM | 0.294 nM | 4.25e-05 s⁻¹ | 144000 M⁻¹ s⁻¹ | 0.36 nM | 5.48e-05 s⁻¹ | 152000 M⁻¹ s⁻¹ | 13.2 nM | –
6 | chimeric lead CL-209881 (antibody, V domains shown, Chimeric antibody with murine variable domains; the constant regions of the tested antibody are not) VH: QVQLKQSGAELVKPGSSVKISCRASGYIFIDYFINWVKQRPGQGLEWIGKIGPGSGSSSSNEKFKGKATLTADKSSSTAYMQLSSLTSEDSAVYFCAREAFDYDGDYYGMAYWGQGTSVTVSS VL: DIVMTQSPSSLSVSAGEKVTMSCKSSQSLLNSGNQKNFLAWYQQKPGQPPKLLIYGASTRESGVPDRFTGSGSGTDFTLTITSVQAEDLAVYYCQNDHSYPITFGSGTKLEIK | – | 0.155 nM | 2.34e-05 s⁻¹ | 151000 M⁻¹ s⁻¹ | 0.24 nM | 3.93e-05 s⁻¹ | 164000 M⁻¹ s⁻¹ | – | –
7 | Nesvacumab analog (Regeneron) (antibody, V domains shown, also called analog of REGN910 (nesvacumab); Nevescumab analog) VH: EVQLVESGGGLVQPGGSLRLSCAASGFTFSSYDIHWVRQATGKGLEWVSAIGPAGDTYYPGSVKGRFTISRENAKNSLYLQMNSLRAGDTAVYYCARGLITFGGLIAPFDYWGQGTLVTVSS VL: EIVLTQSPGTLSLSPGERATLSCRASQSVSSTYLAWYQQKPGQAPRLLIYGASSRATGIPDRFSGSGSGTDFTLTISRLEPEDFAVYYCQHYDNSQTFGQGTKVEIKR | – | – | – | – | – | – | – | – | 0.159 nM
8 | LC06 (Roche) (antibody, human IgG1, lambda, V domains shown, Based on the description in U.S. Pat. No. 9,340,609) VH: not shown VL: QPGLTQPPSVSVAPGQTARITCGGNNIGSKSVHWYQQKPGQAPVLVVYDDSDRPSGIPERFSGSNSGNTATLTISRVEAGDEADYYCQVWDSSSDHYVFGTGTKVTVLG | 1.3 nM | 12 nM | – | – | – | – | – | – | –
